According to US20030228627:

Target: Full-length human Flag-tagged p53 (native, unacetylated) (UniProt P04637)

## Full-length human histidine-tagged p300
  acetylation of p53 by p300 in the presence of 3H-acetyl CoA (electrophoresis, fluorography): p300 efficiently acetylated p53
